Laboratory results published in the RNAGym collection of RNA variant scans (doi:10.1073/pnas.2313332121).
Fewer inactive variants are shown than the library holds.

B1: TPR 5TU (parent)
chain: GGAUCUUCUCGAUCUAACAAAAAAGACAAAUCUGCCACAAAGCUUGAGAGCAUCUUCGGAUGCAGAGGCGGCAGCCUUCGGUGGCGCGAUAGCGCCAACGUUCUCAACUAUGACACGCAAAACGCGUGCUCCGUUGAAUGGAGUUUAUCAUG

Variants of: B1
Assay: polymerase ribozyme fitness, log enrichment relative to wild type (log ratio); higher = more active; in vitro selection for triplet polymerase activity
Procedure, shortened: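 The heterodimeric triplet polymerase ribozyme's subunits were each mutagenized into PCR-built libraries and transcribed. Every library was selected once, in triplicate, by annealing with a biotinylated primer, the partner subunit and triplets, incubating frozen at −7 °C, gel-excising extended constructs, capturing on streptavidin beads and running RT-PCR. Input and output libraries were Illumina-sequenced, with genotypes kept only at ≥10 input reads and ≥1 read per output. Fitness, from inverse-variance-weighted replicate averages, is the base-2 logarithm of genotype enrichment over wild-type enrichment.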

Point of comparison: A41U G46U A52U, “polymerase ribozyme fitness (log ratio)” value -4.03. Against it:
- G42C C43G U56A G59U C85U C125A U127C — lower, ≤ -4.2
- A41C G42C C43G G84U C95U C96G — lower, ≤ -4.2
- G42C C76U C85U A89G U104C — lower, ≤ -4.2
- G42C G68U C85U G128A A150C — lower, ≤ -4.2
- A41C C87U A120C — higher, -1.53
- G42A U56A C93U — lower, ≤ -4.2
- A41C C85A C105G G126U — higher, -3.3
- A41U C87U A137U G143U — lower, ≤ -4.2
- A41G U104G C125G — higher, -1.21
- G42C G80C C93A U104A C108G U145A U146C — lower, ≤ -4.2
- A41G G59A G81U C95A C114U — higher, -1.27
- A41C U127C — higher, -2.04
- A41G G65A G143U — higher, -3.42
- A41G C75G G92C U146A — lower, ≤ -4.2
- G42C A60U G67C G128U A138U — lower, ≤ -4.2
- A41C U82C — higher, -1.14
- A41G U146G — higher, -0.0573
- G42A U44G U56A G81C C85A G117U — lower, ≤ -4.2
- A41U U55A C79U G83A — lower, ≤ -4.2
- G42A C79G U144C — lower, ≤ -4.2
- A41U G58A G74U C108A A120G G141A — lower, ≤ -4.2
- G42C A47C C57U G81C C95A — lower, ≤ -4.2
- A41C C57U C96U — higher, -0.458
- A41C G46A U90A A150G — lower, ≤ -4.2
- G42A G58C G59C G88C A91G A106C A107G — lower, ≤ -4.2
- A41C G94C — higher, -1.8
- A41C U77C G80A U102C U144G — lower, ≤ -4.2
- A41U C57U G80A — higher, -1.12
- A41C C99G — higher, -0.603
- A41C C54A U82G G94U — higher, -3.5
- A41U A89U A91C — within 0.2 log units, -3.97
- G42A A52C C54A U56C G94C — lower, ≤ -4.2
- A41G C75G — higher, -2.98
- G42A A47U U53G A64U G94U A120U — lower, ≤ -4.2
- G42A G58A A64C G65U G84U — lower, ≤ -4.2
- A41U U53A G74C U82C — lower, ≤ -4.2
- A41U C87A A120C U139C A142U — lower, ≤ -4.2
- A41C C87A C95U A115C U151G — lower, ≤ -4.2
- A41U C85G — higher, -2.37
- A41C G83U G124U — higher, -0.893
- G42A A60G C87G — lower, ≤ -4.2
- A41C G65A C93U G94U C103G — lower, ≤ -4.2
- G42A A142C U148G — lower, ≤ -4.2
- A41C U148G — lower, ≤ -4.2
- A41C U148C — higher, -3.07
- A41G G42U A66U G74A U151G — lower, ≤ -4.2
- A41C G50C G83U C95A C99U C105G A137C — lower, ≤ -4.2
- G42C U44G G88A A97C — lower, ≤ -4.2
- G42A G59A U102G — lower, ≤ -4.2
- A41U G83U U90G C93G A106U — lower, ≤ -4.2
- A41G G88U C131G — lower, ≤ -4.2
- A41U U53A G88A U101G C108U G128C A142C — lower, ≤ -4.2
- G42A U56A A60U C76A C96A U102G U127A G141U A150G — lower, ≤ -4.2
- G42A G50A C76U G84U G92A A107C C116G — lower, ≤ -4.2
- G42C U44A A49C G126C C131A A142G A147U — lower, ≤ -4.2
- A41U U55C C63U G86A — higher, -2.8
- G42A C54U G117A — lower, ≤ -4.2
- G42C A49G A138C — lower, ≤ -4.2
- A41U G83C A110G G126A — lower, ≤ -4.2
- A41U C85U A91U A107U — lower, ≤ -4.2
- A41C C85G A113C — within 0.2 log units, -4.19
- A41C C51A U56A G58C U82C C87A G136U — lower, ≤ -4.2
- G42A G59A A66C A73U U78A C87G U146G C149A — lower, ≤ -4.2
- A41G A49C G68U C76U C93U A97U — lower, ≤ -4.2
- G42C G88U C95A — lower, ≤ -4.2
- A41C G68C — lower, ≤ -4.2
- A41C U55A A97G — higher, -0.161
- A41G U44A U55A — higher, -3.41
- A41C C72G A106G G143C U151G — lower, ≤ -4.2
- A41C C85U C99G C132G U139A — lower, ≤ -4.2
- A41C G83C — higher, -0.571
- G42A G48A G68A G86U C132A — lower, ≤ -4.2
- A41U C54U C63U U82A C95G A115U — lower, ≤ -4.2
- A41C C69A — higher, -2.53
- A41C G58C U82G A106G A137G — higher, -2.57
- G42A U53A — lower, ≤ -4.2
- G42C A60U G92U A119U C125A — lower, ≤ -4.2
- G42C G46A G68C C95A A106U C108G — lower, ≤ -4.2
- A41U C63G C85A G152U — lower, ≤ -4.2
- A41C G46U C76A U102A C131G — lower, ≤ -4.2
- G42A G58A G100C — lower, ≤ -4.2
- G42C G48A C75G C96U U104A — lower, ≤ -4.2
